According to patent publication US20220002431A1:

Molecular target: CD20 on Raji cells (CD20-positive human Burkitt's lymphoma cells) (human) (UniProt P11836)
Experiment: cell-based or functional assay

CD20 on Raji cells (CD20-positive human Burkitt's lymphoma cells) (human), sequence (P11836 whole entry): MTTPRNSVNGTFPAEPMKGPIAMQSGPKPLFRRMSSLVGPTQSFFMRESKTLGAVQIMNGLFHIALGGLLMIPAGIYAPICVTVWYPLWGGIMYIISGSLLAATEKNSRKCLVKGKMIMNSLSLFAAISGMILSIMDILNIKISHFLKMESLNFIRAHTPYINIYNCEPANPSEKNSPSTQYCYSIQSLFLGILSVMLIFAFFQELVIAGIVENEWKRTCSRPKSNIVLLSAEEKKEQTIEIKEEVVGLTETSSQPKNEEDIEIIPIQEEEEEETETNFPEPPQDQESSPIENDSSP

## isotype antibody (negative control)
  EC50 for killing of Raji-luc cells by CIK effector cells, luciferase read-out: 0.23 µg/mL
